Experimental data from publication PMC2710002, “KCNE1 and KCNE3 β-Subunits Regulate Membrane Surface Expression of Kv12.2 K^+ Channels In Vitro and Form a Tripartite Complex In Vivo” (PLoS ONE, 2009).

Target: the molecule itself
Assay: native gel or EMSA; blue native PAGE (4-16% NativePAGE Novex Bis-Tris, G-250, pH 7, 4°C) of proteins immunoprecipitated from digitonin lysate of mouse brain; blot with anti-Kv12.2; size of the Kv12.2 complex

B1: Kv12.2 channel (natural protein, mouse (endogenous in mouse brain), UniProt Q9WVJ0 1-1095, looked up)
chain: MPAMRGLLAPQNTFLDTIATRFDGTHSNFVLGNAQVAGLFPVVYCSDGFCDLTGFSRAEVMQRGCACSFLYGPDTSELVRQQIRKALDEHKEFKAELILYRKSGLPFWCLLDVIPIKNEKGEVALFLVSHKDISETKNRGGPDNWKERGGGRRRYGRAGSKGFNANRRRSRAVLYHLSGHLQKQPKGKHKLNKGVFGEKPNLPEYKVAAIRKSPFILLHCGALRATWDGFILLATLYVAVTVPYSVCVSTAREPSAARGPPSVCDLAVEVLFILDIVLNFRTTFVSKSGQVVFAPKSICLHYVTTWFLLDVIAALPFDLLHAFKVNVYVGAHLLKTVRLLRLLRLLPRLDRYSQYSAVVLTLLMAVFALLAHWVACVWFYIGQQEIESSESELPEIGWLQELARRLETPYYLVSRSPDGGNSSGQSENCSSSSSSSGSGGGRGSEANGTGLELLGGPSLRSAYITSLYFALSSLTSVGFGNVSANTDTEKIFSICTMLIGALMHAVVFGNVTAIIQRMYARRFLYHSRTRDLRDYIRIHRIPKPLKQRMLEYFQATWAVNNGIDTTELLQSLPDELRADIAMHLHKEVLQLPLFEAASRGCLRALSLALRPAFCTPGEYLIHQGDALQALYFVCSGSMEVLKGGTVLAILGKGDLIGCELPQREQVVKANADVKGLTYCVLQCLQLAGLHESLALYPEFAPRFSRGLRGELSYNLGAGGVSAEVDTSSLSGDNTLMSTLEEKETDGEQGHTVSPAPADEPSSPLLSPGCTSSSSAAKLLSPRRTAPRPRLGGRGRPSRAGVLKPEAGPSAHPRSLDGLQLPPMPWNVPPDLSPRVVDGIEDGCSSDQPKFSFRVGQSGPECSSSPSPGTESGLLTVPLGPSEARNTDTLDKLRQAVMELSEQVLQMREGLQSLRQAVQLILVPQGEGQCPRGSGEEPCPATASGLLQPLRVDTGASSYCLQPPAGSVLSGTWPHPRPGQPPPLMAPWPWGPPASQSSPWPRATALWTSTSDSEPPGSGDLCSEPSTPASPPPSEEGARTGTPAPVSQAEATSTGEPPPGPGGRALPWDPHSLEMVLIGCHGPGTVQWTQEEGTGV
notes: Kv12.2 (ELK2, KCNH3) voltage-gated potassium channel alpha subunit, mouse, endogenous in brain; about 120 kDa monomer on a denaturing gel, about 500 kDa complex on a native gel; also called ELK2; KCNH3; source: endogenous, mouse brain membrane lysate (0.5% Igepal) or whole mouse brain lysate (1% digitonin)
Question: B1 was tested. Which “stoichiometry N” value did it give?
Answer: 4
